Experimental data published in patent publication US20210388105A1 (ELPISCIENCE SUZHOU BIOPHARMA, published 2021).

Target: T1, human CD39 (full length, on cells) (human, UniProt P49961 1-510)
T1 sequence: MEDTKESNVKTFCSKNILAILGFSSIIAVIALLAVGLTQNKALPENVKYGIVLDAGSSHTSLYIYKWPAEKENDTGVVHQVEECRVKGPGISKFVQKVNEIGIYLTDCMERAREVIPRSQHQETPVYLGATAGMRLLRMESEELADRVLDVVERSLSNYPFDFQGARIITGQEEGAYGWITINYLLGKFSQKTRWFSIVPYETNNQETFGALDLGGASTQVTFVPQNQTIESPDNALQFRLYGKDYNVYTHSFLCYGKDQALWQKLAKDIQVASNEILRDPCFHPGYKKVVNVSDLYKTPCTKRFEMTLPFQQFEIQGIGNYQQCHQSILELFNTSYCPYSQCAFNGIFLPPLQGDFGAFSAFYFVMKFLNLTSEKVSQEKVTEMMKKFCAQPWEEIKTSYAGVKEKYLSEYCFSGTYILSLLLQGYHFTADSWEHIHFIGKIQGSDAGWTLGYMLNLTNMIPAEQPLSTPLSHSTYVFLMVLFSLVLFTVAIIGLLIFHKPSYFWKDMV
Test: cell-based or functional assay

B1: hu23.H5L5 (antibody, V domains shown)
VH: QVQLVQSGAEVKKPGASVKVSCKASGYNLKDTFLHWVRQAPGQGLEWMGRIDPANGNIKYDPKFQGRVTITADTSANTAYMELISLRSEDTAVYYCANSPYYYGSGYRIFDVWGQGTTVTVSS
VL: QIVLTQSPATLSLSPGERATLSCSAFSSVNYMHWYQQKPGQAPRLLIYTTSNLASGIPTRFSGSGSGTSYTLTISSLEPEDFAVYYCQQRSTYPFTFGQGTKLEIK
notes: humanized c23
- ATPase inhibition IC50 on SK-MEL-28 cells: 122 pM
